# B1: RASA3 CanT: canonical full-length RASA3 protein isoform, transfected construct (protein, UniProt Q14644 1-834, looked up)
# chain: MAVEDEGLRVFQSVKIKIGEAKNLPSYPGPSKMRDCYCTVNLDQEEVFRTKIVEKSLCPFYGEDFYCEIPRSFRHLSFYIFDRDVFRRDSIIGKVAIQKEDLQKYHNRDTWFQLQHVDADSEVQGKVHLELRLSEVITDTGVVCHKLATRIVECQGLPIVNGQCDPYATVTLAGPFRSEAKKTKVKRKTNNPQFDEVFYFEVTRPCSYSKKSHFDFEEEDVDKLEIRVDLWNASNLKFGDEFLGELRIPLKVLRQSSSYEAWYFLQPRDNGSKSLKPDDLGSLRLNVVYTEDHVFSSDYYSPLRDLLLKSADVEPVSASAAHILGEVCREKQEAAVPLVRLFLHYGRVVPFISAIASAEVKRTQDPNTIFRGNSLASKCIDETMKLAGMHYLHVTLKPAIEEICQSHKPCEIDPVKLKDGENLENNMENLRQYVDRVFHAITESGVSCPTVMCDIFFSLREAAAKRFQDDPDVRYTAVSSFIFLRFFAPAILSPNLFQLTPHHTDPQTSRTLTLISKTVQTLGSLSKSKSASFKESYMATFYEFFNEQKYADAVKNFLDLISSSGRRDPKSVEQPIVLKEGFMIKRAQGRKRFGMKNFKKRWFRLTNHEFTYHKSKGDQPLYSIPIENILAVEKLEEESFKMKNMFQVIQPERALYIQANNCVEAKDWIDILTKVSQCNQKRLTVYHPSAYLSGHWLCCRAPSDSAPGCSPCTGGLPANIQLDIDGDRETERIYSLFNLYMSKLEKMQEACGSKSVYDGPEQEEYSTFVIDDPQETYKTLKQVIAGVGALEQEHAQYKRDKFKKTKYGSQEHPIGDKSFQNYIRQQSETSTHSI
# modifications: full-length
# notes: canonical full-length RASA3 protein isoform, transfected construct
# Assays:
# [1] = test system: GES1 cells; experiment: Transwell migration assay; format: cell-based; conditions: GES1 cells transfected with isoform, 24 h
# Procedure: (§1) To determine cell migratory capacities, RASA3 wild type and variant transfected AGS and GES1, SNU1967 and AGS, and siRNA treated NCC24 cells were tested using Corning Costar 6.5 mm Transwell with 8.0 μm Pore Polycarbonate Membrane Inserts (3422, Corning, NY, USA). 2.5×10^4 AGS cells and 2×10^4 GES1 cells, 3×10^4 SNU1967 cells and 5×10^4 NCC24 cells were suspended in 0.1 ml serum-free RPMI medium and added to the top of the Transwell insert. 0.6 ml RPMI containing 10% FBS was added into the bottom well as a chemoattractant. After incubation for 24 h at 37° C. in a 5% CO2 incubator, cells were fixed with 3.7% formaldehyde and permeabilized with 100% methanol. Non-migrated cells were scraped off with cotton swabs from the upper surface of the membrane. Migrated cells were stained with 0.5% crystal violet. The number of migrated cells were represented as the total area of migrated cells vs the area of transwell membrane calculated using ImageJ software. For cell invasion assays, the above Transwell inserts were coated with 0.1 ml (300 μg/mL) Corning Matrigel matrix (354234, Corning, NY, USA) for 2 to 4 h at 37° C. before use. All subsequent steps were identical to the migration assay protocol.
# [2] = test system: AGS cells; experiment: Transwell migration assay; format: cell-based; conditions: KRAS mutated AGS cells transfected with isoform, 24 h
# Procedure: as §1
# [3] = test system: HLA-A*02:06 T cells; experiment: IFN-γ assay: primed T cells co-cultured with AGS cells expressing RASA3 isoforms (ELISA); format: cell-based, human; conditions: T cells primed with the isoform, co-cultured with AGS cells expressing the same isoform, two days
# Procedure: To test the immunogenicity of the RASA3 WT and Variant protein sequences, CD14+ monocytes were isolated from a HLA-A*02:06 donor by positive selection using magnetic beads (Miltenyi, Germany). Dendritic cells were generated by GM-CSF (1000 IU/ml) and IL-4 (400 IU/ml), and further matured by TNF (10 ng/ml), IL-1b (10 ng/ml), IL-6 (10 ng/ml) (Miltenyi, Germany) and PGE2 (1 μg/ml) (Stemcell Technologies, Canada) for 24 hours. The DCs were then primed with AGS cell lysates expressing WT RASA3 or Variant RASA3 for 24 hours, before being co-cultured with T cells from the same donor at the ratio of 1:5. After 5 days of co-culture with DC, T cells were isolated by positive selection using CD3 magnetic beads (Miltenyi, Germany) and co-cultured with AGS cells expressing either WT or Variant RASA3 at the ratio of 20:1 for two days. Supernatants were harvested and IFN-γ release was measured by ELISA (R&D, USA).
# [4] = test system: GES1 cells; experiment: Matrigel invasion assay; format: cell-based; conditions: GES1 cells transfected with isoform
# Procedure: as §1
# [5] = test system: SNU1967 cells; experiment: Matrigel invasion assay; format: cell-based; conditions: SNU1967 cells transfected with isoform
# Procedure: as §1
# [6] = test system: GES1 cells; experiment: Cell proliferation assay (WST-8); format: cell-based; conditions: 24 to 120 hours post-transfection
# Procedure: (§2) 3×10^3 GES1, SNU1967 and AGS cells were plated into 96-well plates in media with 10% fetal bovine serum and left overnight to attach. The next day (Day 0), cells were transiently transfected with wild-type and variant RASA3 constructs using Lipofectamine 3000 (Thermo Scientific). The amount of the constructs was 40 ng/well for AGS and 100 ng/well for GES1 and SNU1967 cells. Cell proliferation was measured by the WST-8 assay (Cell Counting Kit-8, Dojindo) from 24 to 120 hours post-transfection. 10 μL of WST-8 solution was added per well and the absorbance reading was measured at 450 nm after 2 hours of incubation in a humidified incubator.
# [7] = test system: SNU1967 cells; experiment: Cell proliferation assay (WST-8); format: cell-based; conditions: 24 to 120 hours post-transfection
# Procedure: as §2
# [8] = test system: AGS cells; experiment: Cell proliferation assay (WST-8); format: cell-based; conditions: 24 to 120 hours post-transfection
# Procedure: as §2
# [9] = test system: RAS; experiment: RAS-GTP assay (Active RAS pull-down) in GES1 cells; format: cell-based; conditions: vs empty vector or RASA3 SomT
# Procedure: GES1 cells were transfected with either RASA3 CanT, RASA3 SomT or empty vector for 48 hours. Cells were harvested for protein in FBS containing media or subjected to over-night serum starvation followed by serum stimulation for 30 minutes prior to harvest. Proteins were extracted using ice-cold lysis buffer (Active RAS Pull-down and Detection Kit) containing protease inhibitor cocktail (Nacalai Tesque). Active RAS fraction was obtained using the Active RAS Pull-down and Detection Kit (Thermo Fisher Scientific) according to manufacturer's instructions. Total RAS was measured in corresponding whole cell protein lysates. β-actin was used as a loading control. Protein concentrations were determined using the Pierce BCA protein assay (Thermo Scientific). SDS sample buffer was added to the lysates and boiled at 100° C. for 5 minutes. Samples were loaded in each well of a 4-15% Mini-Protean TGX gel (Biorad) and transferred to a PVDF membrane using a semi-dry blotting system (Biorad). Membranes were probed with anti-RAS (1 in 200 dilution, supplied in Active RAS Pull-down and Detection Kit), or B-actin (1 in 5000 dilution, Sigma A5316) in 5% milk-PBST at 4° C. over-night. Secondary anti-mouse antibody (LNA931, Amersham) was used at a dilution of 1 in 2000 for 1 hour at room temperature. […]
molecule,measurement,setting,value
B1,migration,[1],did not
same,migration,[2],potently suppressed
same,migration,[2]; listed as RASA3 WT,more potent migration suppression
same,IFNγ release from primed T cells,[3],significantly more
same,invasion,[4],did not
same,invasion,[5],significantly suppressed
same,cellular proliferation rate,[6],did not alter
same,cellular proliferation rate,[7],did not alter
same,cellular proliferation rate,[8],did not alter
same,levels of active GTP-bound RAS,[9],lower levels of active GTP-bound RAS

# — patent US12442042B2, “Epigenomic profiling reveals the somatic promoter landscape of primary gastric adenocarcinoma” (AGENCY FOR SCIENCE, TECHNOLOGY AND RESEARCH, priority 2016, dated 2025)
